Values quoted from earlier work in PMC4329993.
pKd: −log10 of the molar value.

Biological target: GLP-1 receptor (Homo sapiens) (UniProt P43220)
Chain of UniProt P43220 (P43220 24-463): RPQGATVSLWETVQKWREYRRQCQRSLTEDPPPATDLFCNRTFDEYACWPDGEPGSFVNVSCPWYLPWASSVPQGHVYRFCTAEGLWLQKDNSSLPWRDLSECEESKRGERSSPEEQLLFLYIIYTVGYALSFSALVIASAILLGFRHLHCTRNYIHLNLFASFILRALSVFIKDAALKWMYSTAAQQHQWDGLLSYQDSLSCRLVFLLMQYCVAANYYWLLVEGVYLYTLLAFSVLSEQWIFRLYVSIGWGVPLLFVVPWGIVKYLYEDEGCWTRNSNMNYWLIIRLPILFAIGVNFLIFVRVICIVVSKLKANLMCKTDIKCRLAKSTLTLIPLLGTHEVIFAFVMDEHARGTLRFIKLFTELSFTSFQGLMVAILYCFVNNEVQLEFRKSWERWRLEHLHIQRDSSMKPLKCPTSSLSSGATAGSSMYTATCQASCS

Chain of GLP-1 (P01275 98-127): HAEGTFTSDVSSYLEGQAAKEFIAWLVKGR

pKd: 9.52
Substance: GLP-1 (from UniProt P01275)
